Measured values from the RNAGym collection of RNA variant scans (doi:10.1021/acssynbio.7b00057).

B1: Pistol ribozyme (parent)
chain: GGGUCGUUGUUCCAUAAUCGCGUGGAUAUGGCACGCAAGUUUCUACCGGGCACCGUAAAUGUCCGACUGGAGCCGUUCGGGCGGCUAUAAACAGACCUCAGGCCCGAAGCGUGGCGGCACCUGCCGCCGGUGGUAAAAAAGAUCGGAAGAGCACACGUCU

Variants of: B1
Assay: aptazyme ON/OFF ratio, guanine; higher = stronger switching; co-transcriptional cleavage with and without guanine

| Variant | aptazyme ON/OFF ratio |
| --- | --- |
| U7G U8C U10G U11C C12G C13U | 1.36 |
| U8G G9A U10C C12U C13U | 1.11 |
| U7G U8G G9C U10G C12A C13A | 1.07 |
| U7G U8C G9U U10A U11A C12G C13U | 1.19 |
| U7A U8A G9U U10C U11G C12A C13U | 1.18 |
| U7C U8G G9C U10A U11A C12U C13A | 1.21 |
| U7C U11C C12A | 1.1 |
| U7G U8A G9C U11C C12A | 1.11 |
| G9C C12U | 1.07 |
| U7C U8A G9C U10A U11G C12A C13A | 1.13 |
| U8C U10G U11G C12G C13G | 1.13 |
| U7A U8G G9U U10A U11G C12A C13U | 1.19 |
| U7G U8C G9U U10A U11A C13U | 1.79 |
| U7G G9U U10G U11G C12U C13A | 1.22 |
| U8G U10C U11A C12A C13A | 1.16 |
| U7C U8A G9U U11A C12G | 1.14 |
| U7G U8A G9U U10A C12A C13A | 1.04 |
| U7G U8A G9C U10C U11G C12G | 1.03 |
| U7G G9A U10C C13A | 1.11 |
| U8A G9C U10C U11G C12G C13A | 1.14 |
| U7A U8G G9A U10G U11A C12G C13U | 1.22 |
| U7C U10G U11A C13G | 1.18 |
| U7G U8G G9A U11G C13U | 1.3 |
| U7G U11A C12G C13U | 1.12 |

| Variant | aptazyme ON/OFF ratio |
| --- | --- |
| U7C U10C U11G C12G C13A | 1.19 |
| U7C U8C U10C U11G C12U C13U | 1.3 |
| U7A U10C U11A C13G | 1.09 |
| U7G U8C U10A U11C C12A C13G | 1.23 |
| U7G G9U U10C U11G C12A C13G | 1.13 |
| G9U U10A C12U C13U | 1.06 |
| G9A U10G U11G C12U C13G | 1.19 |
| G9C U10G | 2.17 |
| U7C U8C U10A U11G C12A | 1.13 |
| U7A G9A U10C U11G C12U C13G | 1.21 |
| U7C U8G U10C C13U | 1.54 |
| U7C G9C U10A U11G C12G C13G | 1.09 |
| U7A U8A G9A C13G | 1.11 |
| U8C G9A U11C C12U C13G | 1.08 |
| G9U U10C U11C C12G | 1.12 |
| U7A U8G G9C U10G U11G C12A C13U | 1.22 |
| U8C U11C C13U | 1.19 |
| U7C G9C U10A U11A C12U C13U | 1.09 |
| G9C U10C C13U | 1.1 |
| U7G U8A G9C U10G C12A C13U | 1.05 |
| U7C U8C G9C U10G U11C C13U | 1.08 |
| U8C U10C U11A C12U C13U | 1.35 |
| U7C U8A G9U U10C U11G C12U C13U | 1.15 |
| U7G U8G G9C U10A U11A | 1.67 |

| Variant | aptazyme ON/OFF ratio |
| --- | --- |
| U7A U8C G9C U10G U11G C12G C13G | 1.13 |
| U7C G9U U10A U11G C12U | 1.3 |
| U7G G9C U10A U11C C12A C13U | 1.36 |
| G9A U11C C12U C13G | 1.38 |
| U8C G9A U10A U11G C12U C13G | 1.18 |
| U7A U8A U10C U11C C12G C13A | 1.1 |
| U7A U10G U11A C12G C13U | 1.28 |
| U7G U8G G9A U11A C13G | 1.06 |
| U7C U8A G9A U10C U11A C12U C13G | 1.15 |
| U7G U8A G9U U10C C12G C13U | 1.19 |
| U7C U11C C12A C13A | 1.27 |
| U7G U8G G9A U10A U11A C12A C13A | 1.11 |
| U8A G9A U10A U11C | 1.05 |
| U7C U8C G9A U10A U11C C12A C13A | 1.17 |
| U7G U8G U10G U11A C12A C13U | 1.23 |
| G9A | 3.41 |
| U7A U8A G9U U10A U11C C12G C13G | 1.15 |
| U7A U8C U10G U11G C13U | 1.39 |
| U7C U8C G9C U10A C13U | 1.35 |
| U7A G9A U11C C12G C13U | 1.15 |
| U7A U8C G9A U10A U11C C12G C13A | 1.09 |
| U8G G9C U11C C12A C13U | 1.04 |
| U7C U8G G9C U11A C12G C13U | 1.11 |
| U8C G9C U11C C12A C13G | 1.07 |

| Variant | aptazyme ON/OFF ratio |
| --- | --- |
| U7A U8G G9A C12G | 1.79 |
| U7G G9U U11C C12A C13U | 1.41 |
| U8A G9C U11C C13G | 1.04 |
| U8G G9C U10A U11A C12G C13U | 1.18 |
| U7G U8C G9U C12G C13G | 1.32 |
| U7C G9A U10G U11A C12A C13G | 1.09 |
| U8C G9C U10G | 1.43 |
| U7C U11C C12U C13A | 1.39 |
| G9U U10C U11A C12G C13G | 1.43 |
| U7G U8C G9A U10A U11G C12G C13G | 1.14 |
| U7A G9C U10A U11A C12G C13A | 1.04 |
| G9A U10C U11A C12G C13G | 1.31 |
| U7G U8G G9C U10A U11A C12G | 1.07 |
| G9A U10C U11C C13A | 1.02 |
| U7G U8G U10A U11C C13G | 1.25 |
| U8C U11A C13A | 1.13 |
| U7A U10G U11C C12U C13U | 1.21 |
| U7C U8A U10G U11G C12G C13A | 1.08 |
| U7G U8C U10A C12G | 1.29 |
| U8C U10A U11G | 1.29 |
| G9C C12G C13G | 1.14 |
| U8G G9U U10C C12G C13U | 1.36 |
| U7C U11A C12G C13A | 1.11 |
| U7A U8G G9A U10C U11G C12U | 1.26 |

| Variant | aptazyme ON/OFF ratio |
| --- | --- |
| U7C U8C G9U U10G C12U C13A | 1.1 |
| U7G U8A G9U U10G U11C C12G C13G | 1.03 |
| U7C U8C G9C U10C U11A C12U | 1.02 |
| U8C U11A C12A C13G | 1.11 |
| U7C G9C U10A C12G | 1.09 |
| U7C U8G G9U U10G C12G | 1.08 |
| U7G U8A U10C U11G C13U | 1.41 |
| U7C G9U U11A C12U C13A | 1.32 |
| U7A U8G G9U C13G | 1.14 |
| U7C U8C G9U U11G C12U C13A | 1.1 |
| U7G U8G G9A U10G U11C C12A C13U | 1.27 |
| U8G G9A U10C U11C C12A C13G | 1.12 |
| U7C U8C G9C U10C U11C C12U | 1.06 |
| U8G G9A U10C C12G C13A | 1.21 |
| U7A U8A G9C U10C U11A | 0.719 |
| U8C G9U U11A C13A | 1.27 |
| U7A U8G G9U U10C U11C C12U | 1.36 |
| U8G U10C C12G | 1.49 |
| U8A G9A U10G U11G C13G | 1.12 |
| U7A U8C G9C U10A U11A C12A C13A | 1.05 |
| U7C U8G U11A | 1.88 |
| U7C U8C G9A U10C C12G C13U | 1.11 |
| U8G G9C U10G U11G C12A C13U | 1.3 |
| U7G U8C U10G U11C C13A | 1.33 |

| Variant | aptazyme ON/OFF ratio |
| --- | --- |
| U8A G9C U10G U11G C12A C13U | 1.21 |
| U7C U8C U11G C12U C13G | 1.11 |
| U7G U8A G9C U10C U11A C12A C13G | 1.02 |
| U7G U8C G9A C12A C13G | 1.05 |
| U7G U10C U11G C12U C13A | 1.11 |
| U7G G9C U10G U11G C13G | 1.21 |
| U7A G9A U10G U11G C12A C13A | 1.2 |
| U8C U11C C13A | 1.21 |
| U8A G9U U10A U11C C12U C13U | 1.18 |
| U8G G9A U10C U11G C12U C13U | 1.21 |
| U7C U10G U11A C12A C13G | 1.17 |
| U8C G9U U10A U11G C12U C13A | 1.12 |
| U7A G9C U10A U11C C12G C13A | 1.08 |
| U7C U8C G9U U11C C12A C13G | 1.04 |
| U8A C12U C13G | 1.35 |
| U8C G9C C12A C13A | 1.08 |
| U8G G9C U10G U11G | 1.2 |
| U7C U8G G9C C12A | 1.58 |
| U7G G9C U11C C13A | 1.42 |
| U7C U8G U10C U11G | 2 |
| U7G U8G G9A U10A U11C C12U | 1.1 |
| U7G U10A C12U C13A | 1.2 |
| U7A G9C U11A C12U | 1.09 |
| U7A U8C G9A U10G U11A C12G C13U | 1.3 |

| Variant | aptazyme ON/OFF ratio |
| --- | --- |
| U7G U8A G9U U11A C12U | 1.17 |
| U7C U8C G9C U10G C12A C13U | 1.1 |
| U7A U8C G9C U10A U11C C13G | 1.46 |
| U7A U8G G9U U10A C13G | 1.12 |
| U7G G9U U10G C12A C13U | 1.41 |
| U7G G9A U10G U11C C13G | 1.11 |
| U7A G9A U10A U11G C12A C13A | 1.16 |
| G9A U10G U11A C12U C13U | 1.24 |
| U7A G9C U10C U11A C13A | 1.07 |
| U8C G9A U10A U11G C12U C13U | 1.23 |
| G9C U10G C12A C13A | 1.15 |
| U7G U11C C12A C13U | 1.22 |
| U8G G9U C13U | 1.41 |
| U7A G9U U11C C13A | 1.15 |
| U7G U8A G9A U10G U11A C12U C13U | 1.09 |
| U8C G9A U10C U11C C12A | 1.17 |
| U7A G9A U10A U11G C13A | 1.29 |
| U8C G9A U10G U11G C12A C13U | 1.2 |
| U8G G9C U11A | 1.13 |
| U7G U8G G9C U10G U11G C12G C13U | 1.1 |
| U8G G9U U10G C12A C13A | 1.03 |
| U8G G9U U11A C13A | 1.33 |
| U7G U10C U11A C12G C13A | 1.07 |
